Experimental data as given in patent US20110311475A1 (published 2011).

T1: IL2 Receptor beta protein (Fc Chimera Active, Abcam plc) (human, UniProt P14784 27-240)
T1 construct: In the assay it was coupled to DyLight 649 conjugated Protein A; also called IL-2Rβ subunit; human Interleukin-2 receptor beta (CD122); Fc part of the bought chimera not given
T1 sequence (looked up): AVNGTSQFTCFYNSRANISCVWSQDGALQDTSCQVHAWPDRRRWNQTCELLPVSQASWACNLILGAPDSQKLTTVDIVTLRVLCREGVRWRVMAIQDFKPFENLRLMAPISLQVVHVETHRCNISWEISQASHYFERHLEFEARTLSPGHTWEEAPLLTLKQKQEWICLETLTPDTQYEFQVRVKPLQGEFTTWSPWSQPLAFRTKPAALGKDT

T2: Recombinant Human IL-4 Rα Fc Chimera protein (R&D Systems) (human, UniProt P24394 26-231)
T2 construct: In the assay it was coupled to DyLight 649 conjugated Protein A; also called IL-4Rα subunit; Fc part of the bought chimera not given
T2 sequence (looked up): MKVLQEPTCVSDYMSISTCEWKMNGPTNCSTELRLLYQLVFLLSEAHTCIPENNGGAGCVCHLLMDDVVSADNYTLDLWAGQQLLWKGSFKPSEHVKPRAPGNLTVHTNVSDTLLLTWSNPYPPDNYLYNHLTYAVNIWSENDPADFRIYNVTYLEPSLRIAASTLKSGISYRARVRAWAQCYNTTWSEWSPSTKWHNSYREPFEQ

B1: IL-21/IL-2 hybrid protein (ligand)
chain: QGQDRHMIRMRQLIDIVDQLKNYVNDLVPEFLPAPEDVETNCEWSAFSCFQKAQLKSANTGNNERIINVSISNINVIVLELKGSETTFMCDSYEKKPPKEFLERFKSLLQKMIHQHLSSRTHGSEDS
notes: also called IL-21 variant
B2: IL-21/IL-4 hybrid protein (ligand)
chain: QGQDRHMITLQEIIKTLNSLTEQKTLVPEFLPAPEDVETNCEWSAFSCFQKAQLKSAQQFHRHKQLIRFLKRLDRNLWGLAGLNSCPSCDSYEKKPPKEFLERFKSLLQKMIHQHLSSRTHGSEDS
notes: also called IL-21/IL-4 hybrid variant; IL-21/IL-4 variant protein

Legend:
[1] = molecular target: T1, IL2 Receptor beta protein (Fc Chimera …); experiment: bead-based flow cytometric immunoassay, receptor-Fc chimera/Protein A-DyLight 649 (FIG. 19C)
Source text: (§1) Both goat anti-human IL-21 and rabbit anti-human IL-21 antibodies were initially tested using a Western blot technique to confirm suitable detection of the IL-21 variant proteins with the predicted size. The success of antibody-to-bead conjugation was verified using PE Goat anti-Rabbit IgG Detector (BD Biosciences). To detect the receptor interaction of bead-captured IL-21 variants with the Interleukin-21 receptor proprietary subunit, the Interleukin-4 receptor alpha subunit, the Interleukin-2 receptor alpha or the Interleukin-2 receptor beta, appropriate receptor-Fc-chimera proteins were coupled with a Protein-A-fluorochrome complex suitable for flow cytometric evaluation. […] 50 μl of antibody-coated beads and serial dilutions of IL-21 variant proteins, with final concentrations ranging from 100 pg/ml to 1 μg/ml, were incubated together with the fluorescence conjugated receptor-chimera-Protein-A complexes in excess in 96-well plates for 3 h on a titer plate shaker. […] Bead particles were discriminated on the basis of size and fluorescence (see FIGS. 19A and B) on a BD FACSCanto II system with BD FACSDiva software (BD Biosciences). […]

[2] = molecular target: T2, Recombinant Human IL-4 Rα Fc Chimera …; experiment: bead-based flow cytometric immunoassay, receptor-Fc chimera/Protein A-DyLight 649 (FIG. 19D)
Source text: as §1

| Binder | binding result [1] | binding result [2] |
| --- | --- | --- |
| B1 | binds |  |
| B2 |  | binds |
